Data taken from patent US20250066826A1, “ARTIFICIAL SYNTHESIS METHOD FOR MALONYL-COENZYME A (COA) AND USE THEREOF” (SHANGHAI JIAO TONG UNIVERSITY, priority 2023, published 2025).

Columns and labels:
Type in all cases: biochemical
[1] = Oxidoreductase activity test (coupled with BauA, increase at 340 nm); conditions: 1 M purified oxidoreductase, 37° C.; for activity of the target enzyme (in words): in-vitro reaction with 10 M BauA
Method: Oxidoreductase activity test: in-vitro reaction was carried out in a total reaction volume of 200 μL, containing 100 mM Tris buffer (pH 7.8), 2 mM MgCl2, 3 mM DTT, 5 mM pyruvic acid, 5 mM 3-alanine, 2.5 mM NADP^+, 2.5 mM CoA, 10 M BauA, and 1 M purified oxidoreductase, the reaction mixture was cultured at 37° C., and the increase in 340 nm was monitored.

[2] = Transaminase activity test using pyruvic acid as a substrate (coupled with MCR-C, NADPH at 340 nm); conditions: 5 mM pyruvic acid, 5 mM β-alanine, 2.5 mM NADP+, 2.5 mM CoA, 1 M purified transaminase, 10 M MCR-C, pH 7.8, 37° C.
Description: It can be seen that the BauA has the best effect (FIG. 4A).

[3] = Transaminase activity test using oxaloacetic acid as a substrate; conditions: 5 mM oxaloacetic acid, 5 mM β-alanine, 10 M purified transaminase, 10 M MCR-C, pH 7.8, 37° C.
[4] = Transaminase activity test using α-ketoglutaric acid as a substrate; conditions: 5 mM α-ketoglutaric acid, 5 mM β-alanine, 10 M purified transaminase, 10 M MCR-C, pH 7.8, 37° C.

B1: Msed_0709: oxidoreductase from Metallosphaera sedula, SEQ ID NO: 13 (protein)
chain: MRRTLKAAILGATGLVGIEYVRMLADHPYIKPTYLAGKGSVGKPYGEIVRWQTVGNVPKEVANQEVKPTDPKLMDDVDIIFSPLPQGAAGPVEEQFAKLGFNVISNSPDHRFDMDVPMIIPEVNPHTVTLIDEQRKRRDWKGFIVTTPLCTAQGAAIPLTPIYQNFKMSGVMITTMQSLSGAGYPGIASLDIVDNALPLGDGYDAKTVKEITRILSEVKRNVQEPGVNEITLDATTHRIATIHGHYEVAYVTFKEDTDVRKVMESMESFKGEPQDLKLPTAPEKPIIVTTQDARPQVFFDRWAGNPPGMSVVVGRLKQVNPRTIRFVSLIHNTVRGAAGGGVLTAELLVEKGYIDKR
modifications: The sequence is synthetized.
activity of the target enzyme (in words) [1]: exhibit the activity of the target enzyme

B2: YhxA: transaminase from Bacillus cereus, SEQ ID NO: 11 (protein)
chain: MELMIVQVTEQTQSLKKTDEKYLWHAMRGAAPSPTNLIITKAEGAWVTDIDGNRYLDGMSGLWCVNVGYGRKELARAAFEQLEEMPYFPLTQSHVPAIKLAEKLNEWLDDEYVIFFSNSGSEANETAFKIARQYHQQKGDHGRYKFISRYRAYHGNSMGALAATGQAQRKYKYEPLGQGFLHVAPPDTYRNPEDVHTLASAEEIDRVMTWELSQTVAGVIMEPIITGGGILMPPDGYMEKVKEICEKHGALLICDEVICGFGRTGKPFGFMNYGVKPDIITMAKGITSAYLPLSATAVRREVYEAFVGSDDYDRFRHVNTFGGNPAACALALKNLEIMENEKLIERSKELGERLLYELEDVKEHPNVGDVRGKGLLLGIELVEDKQTKEPASIEKMNKVINACKEKGLIIGKNGDTVAGYNNILQLAPPLSITEEDFTFIVKTMKECLAQL
modifications: The sequence is synthetized.
activity of the transaminases [2]: 0.15 µmol/min/mg

B3: BauA: transaminase from Pseudomonas aeruginosa, amino acid sequence SEQ ID NO: 7 (protein)
chain: MNQPLNVAPPVSSELNLRAHWMPFSANRNFQKDPRIIVAAEGSWLTDDKGRKVYDSLSGLWTCGAGHSRKEIQEAVARQLGTLDYSPGFQYGHPLSFQLAEKIAGLLPGELNHVFFTGSGSECADTSIKMARAYWRLKGQPQKTKLIGRARGYHGVNVAGTSLGGIGGNRKMFGQLMDVDHLPHTLQPGMAFTRGMAQTGGVELANELLKLIELHDASNIAAVIVEPMSGSAGVLVPPVGYLQRLREICDQHNILLIFDEVITAFGRLGTYSGAEYFGVTPDLMNVAKQVTNGAVPMGAVIASSEIYDTFMNQALPEHAVEFSHGYTYSAHPVACAAGLAALDILARDNLVQQSAELAPHFEKGLHGLQGAKNVIDIRNCGLAGAIQIAPRDGDPTVRPFEAGMKLWQQGFYVRFGGDTLQFGPTFNARPEELDRLFDAVGEALNGIA
modifications: The sequence is synthetized.
activity of the transaminases [2]: 1.60 µmol/min/mg | activity of the transaminases [3]: 0.46 µmol/min/mg

B4: pydD: transaminase from Ureibacillus massiliensis, SEQ ID NO: 71 (protein)
chain: MSDYLSIKEQDKQYVLHSWAKQGSFNPKVIAKAEGVCFWDDAGNRYFDMSSQLVYVNVGHQHPKVLKAFQEIGTYPLAGPSFATKPKSDLSQRIIELAPSNMAKVFYTSGGAEANDHAVKIARMVSGRYKIFSRYRSYHGATFGAGNLTGESRRFAAEPGLPGFVKFEVPYLYREVIDFDSEEAATAYYLGKLRNQILYEGSDTIAAIFIEPIPGSNGVLIPPKGYLEGVRALCDEFGILMICDEVMTGFGRTGKGFAVDHYDFKPDIMTFAKGVTSGYAPLGGVIISEDISRFFDENVLMTGLTYSGHTMCTQIGVANLEVYEEENIFENAEKMGILLKQRLEKLLTFPSIGEIRSIGLFAGVELVKDKATKEPIIQYGLDYGKDPVGLMNKFISMLSANGFYTYSHESTVIIAPPLIITEEQINEAMDIFESTLKQFEKEGLFPEETLSV
modifications: The sequence is synthetized.
activity of the transaminases [4]: 0.825 µmol/min/mg

B5: MCR-C: oxidoreductase (malonyl-CoA reductase) from Chloroflexus aurantiacu, SEQ ID NO: 70 (protein)
chain: SATTGARSASVGWAESLIGLHLGKVALITGGSAGIGGQIGRLLALSGARVMLAARDRHKLEQMQAMIQSELAEVGYTDVEDRVHIAPGCDVSSEAQLADLVERTLSAFGTVDYLINNAGIAGVEEMVIDMPVEGWRHTLFANLISNYSLMRKLAPLMKKQGSGYILNVSSYFGGEKDAAIPYPNRADYAVSKAGQRAMAEVFARFLGPEIQINAIAPGPVEGDRLRGTGERPGLFARRARLILENKRLNELHAALIAAARTDERSMHELVELLLPNDVAALEQNPAAPTALRELARRFRSEGDPAASSSSALLNRSIAAKLLARLHNGGYVLPADIFANLPNPPDPFFTRAQIDREARKVRDGIMGMLYLQRMPTEFDVAMATVYYLADRVVSGETFHPSGGLRYERTPTGGELFGLPSPERLAELVGSTVYLIGEHLTEHLNLLARAYLERYGARQVVMIVETETGAETMRRLLHDHVEAGRLMTIVAGDQIEAAIDQAITRYGRPGPVVCTPFRPLPTVPLVGRKDSDWSTVLSEAEFAELCEHQLTHHFRVARWIALSDGARLALVTPETTATSTTEQFALANFIKTTLHAFTATIGVESERTAQRILINQVDLTRRARAEEPRDPHERQQELERFIEAVLLVTAPLPPEADTRYAGRIHRGRAITV
modifications: The sequence is synthetized.
oxidoreductase activity ([1]; 5 mM pyruvic acid, 5 mM alanine, 2.5 mM NADP+, 2.5 mM CoA, 10 M BauA): 2.0 µmol/min/mg | activity of the target enzyme (in words) [1]: exhibit the activity of the target enzyme

B6: AptA: transaminase from Acinetobacter pittii, SEQ ID NO: 8 (protein)
chain: MVMFDTDKFSDSEHTLDAVQPNNNMYINYQAHWMPFSANRNFAKDPRMIVGAKGSYLIDDSGREIYDSLSGLWTCGAGHTLPEIQQAVSAQLGQLDYSPAFQFGHPLSFKLADKIVQHMPEKLQHVFFTNSGSESADTAIKMARAYWRIKGKPSKTKLIGRARGYHGVNVAGTSLGGIGGNRKMFGQLMDVDHLPHTLQPNLTFTKGCAETGGVELANEMLKLIELHDASNIAAVIVEPISGSAGCIVPPTGYLQRLREICDQHDILLIFDEVITGFGRLGTWTGAEYFGVTPDILNFAKQVTNGAIPLGGVVASHEIYSAFMQQELPEHAIEFTHGYTYSAHPVACAAALAALEVLEKKNLLAQSAALAPSFEKMLHGLKGAPHVLDIRNCGLIGALQLAPRDGDATIRGFELGMKLWKEGFYVRFGGDTLQFGPMFNGTEADIDRLMNAVGDALYQVN
modifications: The sequence is synthetized.
activity of the transaminases [2]: 0.90 µmol/min/mg | activity of the transaminases [3]: 0.42 µmol/min/mg

B7: PydD2: transaminase from Bacillus megaterium, SEQ ID NO: 10 (protein)
chain: MVQVSQNEKDLRAKDEQYVWHGMKPYSPDATMVATKAKGAWITDEQGNRYLDAMAGLWCVNTGYGRDELALAAYEQLKELAYFPLTQSHVPAIKLAEKLNEMLGDDYVIFFSNSGSEANETAFKIVRQYHQQKGEHSRYKFISRYRGYHGNSMGALAATGQAQRKYKYEPLAPGFIHVAPPDSYRGQDDYDAPKEQLQSVKDIDNVMTWELSETIAAVIMEPIITGGGILLPPQNYMKGVKETCEKHGALLIADEVICGFGRTGEAFGFMNYDVKPDIITMAKGITSAYLPLSATAVKKEIYEAFKDSDQYEYFRHVNTFGGSPAACALALKNLEIMERENLFDRSKQLGAYVLSELTPLIDSHPYVGDVRGKGLLIGIELVADKQTKEPLDVNLVNEVVAKCKSKGVIIGKNGATVAGYNNVLTLSPPLNIEESDIELLLATITYALDSIK
modifications: The sequence is synthetized.
activity of the transaminases [2]: 0.96 µmol/min/mg | activity of the transaminases [3]: 0.49 µmol/min/mg

B8: CCNA_03245: transaminase from Caulobacter vibrioides, SEQ ID NO: 9 (protein)
chain: MLPMPDFGANDLDAFWMPFTPNRRFKRHPRMLSSASGMWYRTPESREVLDATSGLWCVNAGHDRPKIREAIQKQAAEMDYAPCFNMGHPLAFQFASRLAQITPKGLDRIFFTNSGSESVDTALKIALAYHRARGKGTKTRLIGRERGYHGVGFGGISVGGIPKNRMYFGSLLTGVDHLPHTHGLPGNTCAKGQPENGAHLADDLERIVALHDASNIAAVIVEPVAGSTGVLIPPKGYLERLRAICDKHDILLIFDEVITGFGRVGAPFAAERFGVTPDLICMAKGLTNAAVPCGAVAASGKIYDAMMDGADAPIELFHGYTYSAHPLACAAGLATLETYREDDLFARAAGLEGYWQDAMHSLADARHVVDVRNLGLVAGIELEPRPGAPTARAMEVFETCFDEGLLIRVTGDIIALSPPLILEKDHIDRMVETIRRVLGQVD
modifications: The sequence is synthetized.
activity of the transaminases [2]: 0.13 µmol/min/mg

B9: Pyd4: transaminase from Saccharomyces kluyveri, SEQ ID NO: 72 (protein)
chain: MPSYSVAELYYPDEPTEPKISTSSYPGPKAKQELEKLSNVFDTRAAYLLADYYKSRGNYIVDQDGNVLLDVYAQISSIALGYNNPEILKVAKSDAMSVALANRPALACFPSNDYGQLLEDGLLKAAPQGQDKIWTALSGSDANETAFKACFMYQAAKKRNGRSFSTEELESVMDNQLPGTSEMVICSFEKGFHGRLFGSLSTTRSKPIHKLDIPAFNWPKAPFPDLKYPLEENKEANKAEESSCIEKFSQIVQEWQGKIAAVIIEPIQSEGGDNHASSDFFQKLREITIENGILMIVDEVQTGVGATGKMWAHEHWNLSNPPDLVTFSKKFQAAGFYYHDPKLQPDQPFRQFNTWCGDPSKALIAKVIYEEIVKHDLVTRTAEVGNYLFNRLEKLFEGKNYIQNLRGKGQGTYIAFDFGTSSERDSFLSRLRCNGANVAGCGDSAVRLRPSLTFEEKHADVLVSIFDKTLRQLYG
modifications: The sequence is synthetized.
activity of the transaminases [4]: 1.15 µmol/min/mg
